Residue numbers refer to the chain shown, from its start.

In assay [1] the target is T1, Recombinant human CCK4/PTK7 Protein (His Tag), Sino Biological 19399-H08H (human, UniProt Q13308 31-704).
T1 construct: bought protein; not shown: His tag
T1 sequence: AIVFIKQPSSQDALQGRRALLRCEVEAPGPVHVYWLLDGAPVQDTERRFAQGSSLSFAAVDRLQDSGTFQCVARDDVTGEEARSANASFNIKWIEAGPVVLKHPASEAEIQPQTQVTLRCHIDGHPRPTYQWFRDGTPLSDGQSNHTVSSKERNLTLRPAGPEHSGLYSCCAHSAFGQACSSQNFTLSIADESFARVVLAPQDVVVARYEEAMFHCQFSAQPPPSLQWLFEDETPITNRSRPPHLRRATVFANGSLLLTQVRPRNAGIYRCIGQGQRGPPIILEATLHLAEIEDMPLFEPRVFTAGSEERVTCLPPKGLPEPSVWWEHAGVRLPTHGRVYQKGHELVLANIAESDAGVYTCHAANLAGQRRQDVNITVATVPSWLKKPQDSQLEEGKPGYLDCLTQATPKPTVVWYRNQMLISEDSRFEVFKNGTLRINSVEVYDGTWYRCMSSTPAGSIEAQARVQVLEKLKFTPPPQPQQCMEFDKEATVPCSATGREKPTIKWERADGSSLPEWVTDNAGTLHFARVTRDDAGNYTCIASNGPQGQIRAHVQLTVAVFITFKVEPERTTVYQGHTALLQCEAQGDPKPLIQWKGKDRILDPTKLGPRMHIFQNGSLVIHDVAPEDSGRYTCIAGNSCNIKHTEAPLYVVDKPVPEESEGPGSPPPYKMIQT
Put plainly: BLI, antibody on anti-human Fc sensor. Background: BLI is a label-free optical method that tracks binding on a fibre tip over time.

In assay [2] the target is T2, Human PTK7 Protein, His Tag (Acro Biosystems) (human, UniProt Q13308 31-704).
T2 construct: Bought His-tagged protein; also called CCK4; not shown: His tag
T2 sequence: T1 sequence
The assay can be described thus: BLI (Octet), antibody on anti-human Fc sensor, 50 nM PTK7; grade 1 = pH dependent binding relative to parent.

For assay [3], the target named is T3, Human PTK7 Protein, His Tag, Acro Biosystems (human, UniProt Q13308 31-704).
T3 construct: Bought recombinant protein; also called CCK4; not shown: His tag
T3 sequence: T1 sequence
The assay can be described thus: BLI, anti-human Fc capture, 50 nM PTK7; 1 = pH dependent binding relative to parent.

B1: MYT8016 (antibody, V domains shown)
VH: EVQLVQSGGGLVHPGGSLRLSCAGSGFTFSTYLMYWVRQAPGKTLEWVSAIGSGGDTYYADSVKGRFTISRDNAKNSLYLQMNSLRAEDMAVYYCARGLGYWGQGTLVTVSS
VL: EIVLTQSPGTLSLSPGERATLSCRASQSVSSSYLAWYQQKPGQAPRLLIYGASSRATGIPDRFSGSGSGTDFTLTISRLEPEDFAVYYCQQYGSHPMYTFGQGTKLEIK
notes: IgG
Turning to B1, the binding result in assay [1] is “no binding (tested: 50 nM PTK7)”.

B2: MYT8017 (antibody, V domains shown)
VH: B1 VH
VL: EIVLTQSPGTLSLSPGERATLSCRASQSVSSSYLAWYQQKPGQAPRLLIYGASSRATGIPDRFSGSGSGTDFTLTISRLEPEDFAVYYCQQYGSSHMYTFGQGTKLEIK
notes: IgG
As to B2, in assay [1], the binding result is given as “no binding (tested: 50 nM PTK7)”.

B3: MYT8019 (antibody, V domains shown)
VH: B1 VH
VL: not shown
notes: IgG
As for B3, in assay [1], the binding result is “no binding (tested: 50 nM PTK7)”.

B4: MYT11093 (antibody, V domains shown)
VH: EVQLVESGGGLVQPGGSLRLSCTASGLSLSSYWMSWVRQAPGKGLEWVGVISAGGNTYYANWAKGRFTISRDTSKNTVYLQMNSLRAEDTAVYFCARGDDGYTNAAYVSNLWGQGTLVTVSS
VL: EIVMTQSPSTLSASVGDRVIITCQASQSISSWLSWYQQKPGKAPKLLIYKASTLASGVPSRFSGSGSGAEFTLTISSLQPDDFATYYCQSYHDSTTIAFGQGTKLTVL
notes: MYT9361 LC variant
As to B4, the binding result in assay [2] was “binds”.

B5: MYT11258 (antibody, V domains shown)
VH: EVQLVESGGGLVQPGGSLRLSCTASGIDLHRYSMGWVRQAPGKGLEWVGIISYGGSTYYASWAKGRFTISRDTSKNTVYLQMNSLRAEDTAVYFCARVGYPGYSGYGYAFDAFDPWGQGTLVTVSS
VL: EIVMTQSPSTLSASVGDRVIITCQSSKSVYNDNWLSWYQQKPGKAPKLLIYGASTLASGVPSRFSGSGSGAEFTLTISSLQPDDFATYYCAGGYSSSSDNGFGQGTKLTVL
notes: MYT9792 variant, His at VH 30 (H1 05)
Take B5: in assay [3], the binding result is “binds”.

B6: MYT11279 (antibody, V domains shown)
VH: B5 VH with H30S, G65H
VL: B5 VL
notes: MYT9792 variant, His at VH 65 (H2 16)
On to B6, for which, in assay [3], the binding result is “binds”.

B7: MYT11322 (antibody, V domains shown)
VH: B5 VH with H30S
VL: B5 VL with A57H
notes: MYT9792 variant, His at VL 57 (L2 06)
Turning to B7, in assay [3], the binding result is reported as “binds”.

B8: MYT11263 (antibody, V domains shown)
VH: B5 VH with H30S, G35H
VL: B5 VL
notes: MYT9792 variant, His at VH 35 (H1 10)
Consider B8, for which the binding result in assay [3] is reported as “binds”.

B9: MYT11285 (antibody, V domains shown)
VH: B5 VH with H30S, P101H
VL: B5 VL
notes: MYT9792 variant, His at VH 101 (H3 06)
Consider B9, for which the binding result in assay [3] is “binds”.

B10: MYT11289 (antibody, V domains shown)
VH: B5 VH with H30S, G105H
VL: B5 VL
For the molecule B10, the binding result in assay [3] is “binds”.

B11: MYT11267 (antibody, V domains shown)
VH: B5 VH with H30S, Y53H
VL: B5 VL
notes: MYT9792 variant, His at VH 53 (H2 04)
Regarding B11, the binding result in assay [3] is given as “binds”.

B12: MYT11309 (antibody, V domains shown)
VH: B5 VH with H30S
VL: B5 VL with V29H
notes: MYT9792 variant, His at VL 29 (L1 06)
As for B12, the binding result in assay [3] was “binds”.

B13: MYT11272 (antibody, V domains shown)
VH: B5 VH with H30S, Y58H
VL: B5 VL
notes: MYT9792 variant, His at VH 58 (H2 09)
Consider B13, for which the binding result in assay [3] was “binds”.

(Values after patent US20260209386A1 (MYTHIC THERAPEUTICS, published 2026).)
